Measured values: publication PMC4222368, “A human mitochondrial poly(A) polymerase mutation reveals the complexities of post-transcriptional mitochondrial gene expression” (Human Molecular Genetics, 2014)

Target: the molecule itself
Test: SEC; gel filtration analysis of wild-type and mutant mtPAP isolated to electrophoretic purity

Protein | stoichiometry N
human mitochondrial poly(A) polymerase (mtPAP), wild type, residues 44-538 (enzyme, UniProt Q9NVV4 44-538, looked up, human mitochondrial poly(A) polymerase (MTPAP, formerly PAPD1), residues 44-538, in pET28a; also called wild-type mtPAP; WT) EQPSGSVETGFEDKIPKRRFSEMQNERREQAQRTVLIHCPEKISENKFLKYLSQFGPINNHFFYESFGLYAVVEFCQKESIGSLQNGTHTPSTAMETAIPFRSRFFNLKLKNQTSERSRVRSSNQLPRSNKQLFELLCYAESIDDQLNTLLKEFQLTEENTKLRYLTCSLIEDMAAAYFPDCIVRPFGSSVNTFGKLGCDLDMFLDLDETRNLSAHKISGNFLMEFQVKNVPSERIATQKILSVLGECLDHFGPGCVGVQKILNARCPLVRFSHQASGFQCDLTTNNRIALTSSELLYIYGALDSRVRALVFSVRCWARAHSLTSSIPGAWITNFSLTMMVIFFLQRRSPPILPTLDSLKTLADAEDKCVIEGNNCTFVRDLSRIKPSQNTETLELLLKEFFEYFGNFAFDKNSINIRQGREQNKPDSSPLYIQNPFETSLNISKNVSQSQLQKFVDLARESAWILQQEDTDRPSISSNRPWGLVSLLLPSAPNR | 2
human mitochondrial poly(A) polymerase (mtPAP), p.N478D mutant, residues 44-538 (enzyme, UniProt Q9NVV4 44-538, looked up, human mitochondrial poly(A) polymerase (MTPAP), residues 44-538, in pET28a, with the patient mutation p.N478D (c.1432A>G) made with the QuikChange kit; The mutation occurs in patients (spastic ataxia with optic atrophy); also called p.N478D mtPAP; mutant mtPAP) EQPSGSVETGFEDKIPKRRFSEMQNERREQAQRTVLIHCPEKISENKFLKYLSQFGPINNHFFYESFGLYAVVEFCQKESIGSLQNGTHTPSTAMETAIPFRSRFFNLKLKNQTSERSRVRSSNQLPRSNKQLFELLCYAESIDDQLNTLLKEFQLTEENTKLRYLTCSLIEDMAAAYFPDCIVRPFGSSVNTFGKLGCDLDMFLDLDETRNLSAHKISGNFLMEFQVKNVPSERIATQKILSVLGECLDHFGPGCVGVQKILNARCPLVRFSHQASGFQCDLTTNNRIALTSSELLYIYGALDSRVRALVFSVRCWARAHSLTSSIPGAWITNFSLTMMVIFFLQRRSPPILPTLDSLKTLADAEDKCVIEGNNCTFVRDLSRIKPSQNTETLELLLKEFFEYFGNFAFDKNSINIRQGREQNKPDSSPLYIQDPFETSLNISKNVSQSQLQKFVDLARESAWILQQEDTDRPSISSNRPWGLVSLLLPSAPNR | 2
